Measured values reported in WO2022059800A1 (dated 2022).

Molecular target: T1, recombinant Tie2-Fc fusion protein (R&D systems) (UniProt Q02763 23-745)
T1 construct: not shown: Fc part
Assay: Biacore 8K, Ang2 amine-coupled, Tie2-Fc as analyte, single-cycle kinetics

T1 sequence (Q02763 23-745 limits assumed): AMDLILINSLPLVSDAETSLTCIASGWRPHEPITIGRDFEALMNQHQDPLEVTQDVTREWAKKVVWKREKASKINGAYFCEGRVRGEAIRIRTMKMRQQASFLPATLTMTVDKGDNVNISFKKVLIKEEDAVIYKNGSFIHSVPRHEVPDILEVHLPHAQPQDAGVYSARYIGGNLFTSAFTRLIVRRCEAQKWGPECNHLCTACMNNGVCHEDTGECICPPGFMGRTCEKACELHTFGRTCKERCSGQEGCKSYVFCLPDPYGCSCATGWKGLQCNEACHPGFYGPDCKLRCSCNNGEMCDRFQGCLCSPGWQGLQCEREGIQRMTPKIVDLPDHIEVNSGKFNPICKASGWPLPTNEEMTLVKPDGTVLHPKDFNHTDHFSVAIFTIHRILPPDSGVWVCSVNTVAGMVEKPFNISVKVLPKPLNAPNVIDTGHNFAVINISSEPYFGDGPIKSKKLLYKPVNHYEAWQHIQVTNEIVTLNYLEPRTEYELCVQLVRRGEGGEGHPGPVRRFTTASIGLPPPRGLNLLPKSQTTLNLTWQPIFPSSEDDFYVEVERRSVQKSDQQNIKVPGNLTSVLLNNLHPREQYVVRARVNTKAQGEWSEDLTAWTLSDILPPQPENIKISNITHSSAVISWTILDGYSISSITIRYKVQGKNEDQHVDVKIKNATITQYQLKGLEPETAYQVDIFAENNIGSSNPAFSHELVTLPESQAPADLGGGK

B1: human recombinant Ang2 protein (ligand, UniProt O15123 19-496, looked up)
chain: YNNFRKSMDSIGKKQYQVQHGSCSYTFLLPEMDNCRSSSSPYVSNAVQRDAPLEYDDSVQRLQVLENIMENNTQWLMKLENYIQDNMKKEMVEIQQNAVQNQTAVMIEIGTNLLNQTAEQTRKLTDVEAQVLNQTTRLELQLLEHSLSTNKLEKQILDQTSEINKLQDKNSFLEKKVLAMEDKHIIQLQSIKEEKDQLQVLVSKQNSIIEELEKKIVTATVNNSVLQKQQHDLMETVNNLLTMMSTSNSAKDPTVAKEEQISFRDCAEVFKSGHTTNGIYTLTFPNSTEEIKAYCDMEAGGGGWTIIQRREDGSVDFQRTWKEYKVGFGNPSGEYWLGNEFVSQLTNQQRYVLKIHLKDWEGNEAYSLYEHFYLSSEELNYRIHLKGLTGTAGKISSISQPGNDFSTKDGDNDKCICKCSQMLTGGWWFDACGPSNLNGMYYPQRQNTNKFNGIKWYYWKGSGYSLKATTMMIRPADF
notes: also called rhAng2; angiopoietin-2
- Kd: 4.26 nM
